Measured values from US20110059889A1 (SYNTONIX PHARMACEUTICALS, published 2011).
Where two headings read alike, the source gives them in different places. One block for each binder: values may come before it. Bridge positions count the residues as written; N and C are the ends. Square brackets hold non-standard residues; d marks the D form. Ends that are not written are not given here. NMeY = CN[C@@H](Cc1ccc(O)cc1)C(=O)O; NMeL = CN[C@@H](CC(C)C)C(=O)O; Pen = CC(C)(S)[C@H](N)C(=O)O; NMeA = CN[C@@H](C)C(=O)O; Sar = CNCC(=O)O

Assays:
[1] = biological target: T1, soluble human FcRn (shFcRn) (human, UniProt P55899 24-297; P61769 21-119); assay: IgG competition ELISA
T1 construct: Biotinylated for the ELISA, amine-coupled to a CM5 chip for SPR; also called biotinylated shFcRn
Experimental: (§1) The wells were coated with 100 μl/well of 1 μg/ml biotinylated-shFcRn in Buffer A. The plate was sealed and incubated at 37° C. for 2 hours. Afterwards, the plate was washed with 200 μl/well of Buffer B (Buffer B: 100 mM MES pH 6, 150 mM NaCl, 0.5% BSA IgG-free (Jackson ImmunoResearch, West Grove, Pa.), 0.05% Tween-20). […] To allow for mixing, the plate was rocked for 2 minutes, sealed and incubated at 37° C. for 2 hours. […] The plate was covered, incubated for 30 minutes at room temperature and washed 4 times with 200 μl/well of ice-cold buffer B. SureBlue TMB substrate solution (100 μl/well, KPL, Gaithersburg, Md.) was added and the plate was allowed to incubate at room temperature until color developed, which took 5 to 10 minutes. Once color developed, 100 μl/well of TMB stop solution (KPL, Gaithersburg, Md.) was added and the absorbance was measured at 450 nm. The data was plotted as absorbance vs. peptide concentration to derive the inhibitory concentration 50% (IC₅₀) values.

[2] = biological target: T1, soluble human FcRn (shFcRn); assay: SPR pH 6; Peptide No. 74: Pen, G and lower-case a (QRF-Pen-TGHF-G-a-LYPCNGP)
Experimental: (§2) The following steps were performed to cross-link soluble human or cynomolgus FcRn to the dextran surface of a CM5 sensor chip (Biacore AB, Uppsala, Sweden) by an amine coupling reaction involving 1-ethyl-(3-dimethylaminopropyl)-carbodiimide hydrochloride (EDC) (Biacore AB, Uppsala, Sweden) and N-hydroxysuccinimide (NHS) (Biacore AB, Uppsala, Sweden) as recommended by Biacore (BIAapplications Handbook, version AB, section 4.2, Biacore AB, Uppsala, Sweden). […] Residual sites on the FcRn flow cell were blocked with 1 M ethanolamine hydrochloride pH 8.5 (Biacore AB, Uppsala, Sweden). A control flow cell was blocked with ethanolamine for reference subtraction. For analysis of the monomeric peptides, FcRn was coated to a final density of 4000-5000 response units (RU). For analysis of the peptide dimers, FcRn was coated to a density of 2000-2500 RU. All SPR measurements were performed using a BIACORE 3000 Instrument (Biacore AB Uppsala, Sweden). For measurements done at either pH 6 or pH 7.4, experiments were performed in 50 mM phosphate, 100 mM sodium chloride, 0.01% surfactant P20 (Biacore AB, Uppsala, Sweden).
(§3) Ten, 2-fold dilutions of the peptide were injected over the FcRn-CM5 chip at a rate of 20 μl/min for 2 min. The peptide was dissociated from the chip for 2.5 minutes with buffer. […] Sensorgrams were generated and analyzed using BiaEval software version 3.1 (Biacore AB, Uppsala, Sweden). […]

[3] = biological target: T1, soluble human FcRn (shFcRn); assay: IgG competition ELISA; remark: listed apart in the source
Experimental: as §1

[4] = biological target: T1, soluble human FcRn (shFcRn); assay: SPR pH 6
Experimental: as §2
(§4) Ten, 2-fold dilutions of the peptide were injected over the FcRn-CM5 chip at a rate of 20 μl/min for 2 min. The peptide was dissociated from the chip for 2.5 minutes with buffer. Any remaining peptide was removed from the chip with a 30 second injection of HBS-P buffer (Biacore AB, Uppsala, Sweden) at a rate of 30 μl/min. Sensorgrams were generated and analyzed using BiaEval software version 3.1 (Biacore AB, Uppsala, Sweden). The equilibrium RU observed for each injection was plotted against concentration. The equilibrium KD values were derived by analysis of the plots using the steady state affinity model included in the BiaEval software.

[5] = biological target: T1, soluble human FcRn (shFcRn); assay: SPR pH 6; Peptide No. 75: Pen, lower-case a-G (QRF-Pen-TGHF-a-G-LYPCNGP)
Experimental: as §2, §3

[6] = biological target: T1, soluble human FcRn (shFcRn); assay: SPR pH 6; Peptide No. 113: Pen, NMeLeu (QRF-Pen-TGHFGG-NMeLeu-YPCNGP)
Experimental: as §2, §3

[7] = biological target: T1, soluble human FcRn (shFcRn); assay: IgG competition ELISA; remark: listed apart in the source
Experimental: as §1

[8] = biological target: T1, soluble human FcRn (shFcRn); assay: SPR pH 7.4; Peptide No. 146: Pen for Cys and NMeLeu for Leu (RF-Pen-TGHFGG-NMeLeu-YPCNGP)
Experimental: as §2, §3

[9] = biological target: T1, soluble human FcRn (shFcRn); assay: SPR pH 6; remark: listed apart in the source
Experimental: as §2, §4

[10] = biological target: T1, soluble human FcRn (shFcRn); assay: IgG competition ELISA; remark: listed apart in the source
Experimental: as §1

[11] = biological target: T1, soluble human FcRn (shFcRn); assay: SPR pH 6; remark: listed apart in the source
Experimental: as §2, §3

[12] = biological target: T1, soluble human FcRn (shFcRn); assay: IgG competition ELISA; remark: listed apart in the source
Experimental: as §1

[13] = biological target: T1, soluble human FcRn (shFcRn); assay: IgG competition ELISA; remark: listed apart in the source
Experimental: as §1

[14] = biological target: T1, soluble human FcRn (shFcRn); assay: SPR pH 6; remark: listed apart in the source
Experimental: as §2, §3

[15] = biological target: T1, soluble human FcRn (shFcRn); assay: IgG competition ELISA; remark: listed apart in the source
Experimental: as §1

[16] = biological target: T1, soluble human FcRn (shFcRn); assay: SPR pH 7.4
Experimental: as §2, §3

[17] = biological target: T1, soluble human FcRn (shFcRn); assay: SPR pH 6; Peptide No. 114: Pen, NMeTyr (QRF-Pen-TGHFGGL-NMeTyr-PCNGP)
Experimental: as §2, §3

B1: Peptide No. 74 (peptide)
peptide: QRF[Pen]TGHFG[dA]LYPCNGP-NH2
modifications: disulfide 4-14; N-terminus assumed
SMILES: CC(C)C[C@@H]1NC(=O)[C@@H](C)NC(=O)CNC(=O)[C@H](Cc2ccccc2)NC(=O)[C@H](Cc2c[nH]cn2)NC(=O)CNC(=O)[C@H]([C@@H](C)O)NC(=O)[C@@H](NC(=O)[C@H](Cc2ccccc2)NC(=O)[C@H](CCCNC(=N)N)NC(=O)[C@@H](N)CCC(N)=O)C(C)(C)SSC[C@@H](C(=O)N[C@@H](CC(N)=O)C(=O)NCC(=O)N2CCC[C@H]2C(N)=O)NC(=O)[C@@H]2CCCN2C(=O)[C@H](Cc2ccc(O)cc2)NC1=O
- IC50 [1]: 2000 nM
- Kd [2]: 480 nM

B4: Peptide No. 75 (peptide)
peptide: QRF[Pen]TGHF[dA]GLYPCNGP-NH2
modifications: disulfide 4-14; N-terminus assumed
SMILES: CC(C)C[C@@H]1NC(=O)CNC(=O)[C@@H](C)NC(=O)[C@H](Cc2ccccc2)NC(=O)[C@H](Cc2c[nH]cn2)NC(=O)CNC(=O)[C@H]([C@@H](C)O)NC(=O)[C@@H](NC(=O)[C@H](Cc2ccccc2)NC(=O)[C@H](CCCNC(=N)N)NC(=O)[C@@H](N)CCC(N)=O)C(C)(C)SSC[C@@H](C(=O)N[C@@H](CC(N)=O)C(=O)NCC(=O)N2CCC[C@H]2C(N)=O)NC(=O)[C@@H]2CCCN2C(=O)[C@H](Cc2ccc(O)cc2)NC1=O
- Kd [5]: 490 nM

B5: Peptide No. 113 (peptide)
peptide: QRF[Pen]TGHFGG[NMeL]YPCNGP-NH2
modifications: disulfide 4-14; N-terminus assumed
SMILES: CC(C)C[C@H]1C(=O)N[C@@H](Cc2ccc(O)cc2)C(=O)N2CCC[C@H]2C(=O)N[C@H](C(=O)N[C@@H](CC(N)=O)C(=O)NCC(=O)N2CCC[C@H]2C(N)=O)CSSC(C)(C)[C@H](NC(=O)[C@H](Cc2ccccc2)NC(=O)[C@H](CCCNC(=N)N)NC(=O)[C@@H](N)CCC(N)=O)C(=O)N[C@@H]([C@@H](C)O)C(=O)NCC(=O)N[C@@H](Cc2c[nH]cn2)C(=O)N[C@@H](Cc2ccccc2)C(=O)NCC(=O)NCC(=O)N1C
- Kd [6]: 86 nM
- IC50 [7]: 1600 nM

Binder: QRFCTGHFGGLXPCNGP (Pen 4; 3-pyridylAla 12; disulfide 4-14; C-terminal amide) [Peptide No. 67]
- IC50 [10]: 92000 nM
- Kd [11]: 34000 nM

B7: Peptide No. 99 (peptide)
peptide: RF[Pen]TGHFGGLYPC-NH2
modifications: disulfide 3-13; N-terminus assumed
SMILES: CC(C)C[C@@H]1NC(=O)CNC(=O)CNC(=O)[C@H](Cc2ccccc2)NC(=O)[C@H](Cc2c[nH]cn2)NC(=O)CNC(=O)[C@H]([C@@H](C)O)NC(=O)[C@@H](NC(=O)[C@H](Cc2ccccc2)NC(=O)[C@@H](N)CCCNC(=N)N)C(C)(C)SSC[C@@H](C(N)=O)NC(=O)[C@@H]2CCCN2C(=O)[C@H](Cc2ccc(O)cc2)NC1=O
- IC50 [12]: 2000 nM
- IC50 [13]: 2000 nM

B8: Peptide No. 142 (peptide)
peptide: RF[Pen]TGHFG[dP]LYPC-NH2
modifications: disulfide 3-13; N-terminus assumed
SMILES: CC(C)C[C@@H]1NC(=O)[C@H]2CCCN2C(=O)CNC(=O)[C@H](Cc2ccccc2)NC(=O)[C@H](Cc2c[nH]cn2)NC(=O)CNC(=O)[C@H]([C@@H](C)O)NC(=O)[C@@H](NC(=O)[C@H](Cc2ccccc2)NC(=O)[C@@H](N)CCCNC(=N)N)C(C)(C)SSC[C@@H](C(N)=O)NC(=O)[C@@H]2CCCN2C(=O)[C@H](Cc2ccc(O)cc2)NC1=O
- IC50 [12]: 1500 nM
- Kd [14]: 140 nM

B12: Peptide No. 114 (peptide)
peptide: QRF[Pen]TGHFGGL[NMeY]PCNGP-NH2
modifications: disulfide 4-14; N-terminus assumed
SMILES: CC(C)C[C@@H]1NC(=O)CNC(=O)CNC(=O)[C@H](Cc2ccccc2)NC(=O)[C@H](Cc2c[nH]cn2)NC(=O)CNC(=O)[C@H]([C@@H](C)O)NC(=O)[C@@H](NC(=O)[C@H](Cc2ccccc2)NC(=O)[C@H](CCCNC(=N)N)NC(=O)[C@@H](N)CCC(N)=O)C(C)(C)SSC[C@@H](C(=O)N[C@@H](CC(N)=O)C(=O)NCC(=O)N2CCC[C@H]2C(N)=O)NC(=O)[C@@H]2CCCN2C(=O)[C@H](Cc2ccc(O)cc2)N(C)C1=O
- Kd [17]: 92000 nM

More lines, now with the values ahead:

- IC50 [3]: 5500 nM
- Kd [4]: 1000 nM
B2: Peptide No. 213 (peptide)
peptide: QRF[Pen][NMeA]GHFGGLYPCNGP-NH2
modifications: disulfide 4-14; N-terminus assumed
SMILES: CC(C)C[C@@H]1NC(=O)CNC(=O)CNC(=O)[C@H](Cc2ccccc2)NC(=O)[C@H](Cc2c[nH]cn2)NC(=O)CNC(=O)[C@H](C)N(C)C(=O)[C@@H](NC(=O)[C@H](Cc2ccccc2)NC(=O)[C@H](CCCNC(=N)N)NC(=O)[C@@H](N)CCC(N)=O)C(C)(C)SSC[C@@H](C(=O)N[C@@H](CC(N)=O)C(=O)NCC(=O)N2CCC[C@H]2C(N)=O)NC(=O)[C@@H]2CCCN2C(=O)[C@H](Cc2ccc(O)cc2)NC1=O

- Kd [4]: 760 nM
B3: Peptide No. 195 (peptide)
peptide: QRF[Pen]GGHFGGLYPCNGP-NH2
modifications: disulfide 4-14; N-terminus assumed
SMILES: CC(C)C[C@@H]1NC(=O)CNC(=O)CNC(=O)[C@H](Cc2ccccc2)NC(=O)[C@H](Cc2c[nH]cn2)NC(=O)CNC(=O)CNC(=O)[C@@H](NC(=O)[C@H](Cc2ccccc2)NC(=O)[C@H](CCCNC(=N)N)NC(=O)[C@@H](N)CCC(N)=O)C(C)(C)SSC[C@@H](C(=O)N[C@@H](CC(N)=O)C(=O)NCC(=O)N2CCC[C@H]2C(N)=O)NC(=O)[C@@H]2CCCN2C(=O)[C@H](Cc2ccc(O)cc2)NC1=O

- Kd [8]: 280 nM
- IC50 [7]: 2100 nM
- Kd [9]: 59 nM
B6: Peptide No. 146 (peptide)
peptide: RF[Pen]TGHFGG[NMeL]YPCNGP-NH2
modifications: disulfide 3-13; N-terminus assumed
SMILES: CC(C)C[C@H]1C(=O)N[C@@H](Cc2ccc(O)cc2)C(=O)N2CCC[C@H]2C(=O)N[C@H](C(=O)N[C@@H](CC(N)=O)C(=O)NCC(=O)N2CCC[C@H]2C(N)=O)CSSC(C)(C)[C@H](NC(=O)[C@H](Cc2ccccc2)NC(=O)[C@@H](N)CCCNC(=N)N)C(=O)N[C@@H]([C@@H](C)O)C(=O)NCC(=O)N[C@@H](Cc2c[nH]cn2)C(=O)N[C@@H](Cc2ccccc2)C(=O)NCC(=O)NCC(=O)N1C

- IC50 [15]: 4900 nM
B9: Peptide No. 194 (peptide)
peptide: QRFCTGHFGXYPCNGP
modifications: Pen 4; X 10 = D,L-Friedinger's lactam (dipeptide mimetic in place of Gly-Leu); disulfide 4-13; C-terminal amide

- Kd [16]: 350 nM
- IC50 [7]: 1000 nM
- Kd [9]: 58 nM
B10: Peptide No. 147 (peptide)
peptide: RF[Pen]TGHFG[Sar]YPCNGP-NH2
modifications: disulfide 3-12; N-terminus assumed
SMILES: C[C@@H](O)[C@@H]1NC(=O)[C@@H](NC(=O)[C@H](Cc2ccccc2)NC(=O)[C@@H](N)CCCNC(=N)N)C(C)(C)SSC[C@@H](C(=O)N[C@@H](CC(N)=O)C(=O)NCC(=O)N2CCC[C@H]2C(N)=O)NC(=O)[C@@H]2CCCN2C(=O)[C@H](Cc2ccc(O)cc2)NC(=O)CN(C)C(=O)CNC(=O)[C@H](Cc2ccccc2)NC(=O)[C@H](Cc2c[nH]cn2)NC(=O)CNC1=O
notes: copied as printed (RF-Pen-TGHFG-Sar-YPCNGP); a Leu after Sar may be missing in the print

- IC50 [15]: 19000 nM
B11: Peptide No. 216 (peptide)
peptide: QRFCTGHFGXYPCNGP
modifications: Pen 4; X 10 = L,L-Friedinger's lactam (dipeptide mimetic in place of Gly-Leu); disulfide 4-13; C-terminal amide
